Experimental data reported in patent US20120244132A1 (published 2012).

Target: T1, latent membrane protein 2 (LMP-2) from the Epstein Barr Virus (EBV) peptide on HLA-A*02:01 (human)
T1 peptide: CLGGLLTMV
Assay: multimer staining

B1: EBVa14-p2A-Vb7.7 (LMP-2-specific TCR of SEQ ID No. 8) (TCR, V domains shown)
Valpha: AQKITQTQPGMFVQEKEAVTLDCTYDTSDQSYGLFWYKQPSSGEMIFLIYQGSYDEQNATEGRYSLNFQKARKSANLVISASQLGDSAMYFCAMREGSGSARQLTFGSGTQLTVLP
Vbeta: GAGVSQSPRYKVTKRGQDVTLRCDPISSHATLYWYQQALGQGPEFLTYFNYEAQPDKSGLPSDRFSAERPEGSISTLTIQRTEQRDSAMYRCASSLGPAGIQETQYFGPGTRLLVL
B1: recognises.
